Data as given in paper PMC9482650, “Quantitative fragmentomics allow affinity mapping of interactomes” (Nature Communications, 2022).

T1: PDZRN3_1, Q9UPQ7
T1 sequence (Q9UPQ7 244-349, limits assumed, looked up): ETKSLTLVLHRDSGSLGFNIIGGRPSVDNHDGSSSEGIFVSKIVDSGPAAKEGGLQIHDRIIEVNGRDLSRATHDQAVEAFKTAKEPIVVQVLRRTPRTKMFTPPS

T2: ARHGEF11, O15085
T2 sequence (O15085 42-136, limits assumed, looked up): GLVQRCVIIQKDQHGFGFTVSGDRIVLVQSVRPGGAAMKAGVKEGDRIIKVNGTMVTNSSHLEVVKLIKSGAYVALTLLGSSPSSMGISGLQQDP

T3: SNTB1, Q13884
T3 sequence (Q13884 107-205, limits assumed, looked up): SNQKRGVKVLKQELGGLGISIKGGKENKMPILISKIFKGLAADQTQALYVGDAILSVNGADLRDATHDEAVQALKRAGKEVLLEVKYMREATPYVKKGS

T4: PDZD2_2, O15018
T4 sequence (O15018 329-429, limits assumed, looked up): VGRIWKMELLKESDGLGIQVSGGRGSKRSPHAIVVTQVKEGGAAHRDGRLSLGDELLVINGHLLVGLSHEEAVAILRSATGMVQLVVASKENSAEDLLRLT

T5: SHANK1, Q9Y566
T5 sequence (Q9Y566 658-767, limits assumed, looked up): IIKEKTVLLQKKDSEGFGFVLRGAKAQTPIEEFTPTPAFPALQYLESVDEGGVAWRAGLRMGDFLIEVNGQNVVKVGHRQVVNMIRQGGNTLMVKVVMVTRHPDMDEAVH

T6: DFNB31_2, Q9P202
T6 sequence (Q9P202 274-371, limits assumed, looked up): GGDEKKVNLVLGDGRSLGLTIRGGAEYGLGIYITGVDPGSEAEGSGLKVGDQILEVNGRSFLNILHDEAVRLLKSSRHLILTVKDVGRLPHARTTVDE

T7: GRIP1_2, Q9Y3R0
T7 sequence (Q9Y3R0 145-248, limits assumed, looked up): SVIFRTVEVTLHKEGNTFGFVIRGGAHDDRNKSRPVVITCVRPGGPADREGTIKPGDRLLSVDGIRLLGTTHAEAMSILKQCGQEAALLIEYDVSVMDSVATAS

T8: TX1BP3, O14907
T8 sequence (O14907 10-122, limits assumed, looked up): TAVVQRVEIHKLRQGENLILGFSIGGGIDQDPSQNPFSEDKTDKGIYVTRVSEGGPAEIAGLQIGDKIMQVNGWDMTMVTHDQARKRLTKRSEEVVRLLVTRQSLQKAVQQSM

T9: LIN7B, Q9HAP6
T9 sequence (Q9HAP6 88-185, limits assumed, looked up): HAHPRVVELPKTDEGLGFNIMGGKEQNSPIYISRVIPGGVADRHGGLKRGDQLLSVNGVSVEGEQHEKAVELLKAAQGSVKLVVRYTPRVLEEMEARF

T10: PTPN13_1, Q12923
T10 sequence (Q12923 1088-1188, limits assumed, looked up): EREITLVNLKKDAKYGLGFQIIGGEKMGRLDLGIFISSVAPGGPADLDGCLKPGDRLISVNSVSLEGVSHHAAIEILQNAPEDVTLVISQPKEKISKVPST

T11: LNX2_3, Q8N448
T11 sequence (Q8N448 463-564, limits assumed, looked up): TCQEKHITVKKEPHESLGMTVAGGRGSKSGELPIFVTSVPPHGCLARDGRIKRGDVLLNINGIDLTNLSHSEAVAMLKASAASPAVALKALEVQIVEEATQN


Columns and labels:
Assay in all cases: holdup assay
Parameters in all cases: key: below the threshold = too weak to quantify, mostly under pKd 3.1 to 4
Settings in all cases: plain residues with an end cap or a label only (N-terminal biotin on a linker: ado-ado)
PARD3_3, Q8TEW0 = target: PARD3_3, Q8TEW0
PARD3_3, Q8TEW0, sequence (Q8TEW0 582-685): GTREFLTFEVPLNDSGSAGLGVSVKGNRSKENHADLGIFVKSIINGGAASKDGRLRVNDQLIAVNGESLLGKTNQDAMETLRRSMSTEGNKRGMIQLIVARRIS

PDZRN3_1, Q9UPQ7 = target: T1, PDZRN3_1, Q9UPQ7
ARHGEF11, O15085 = target: T2, ARHGEF11, O15085
Inadl_10, Q8NI35 = target: Inadl_10, Q8NI35
Inadl_10, Q8NI35, sequence (Q8NI35 1673-1763): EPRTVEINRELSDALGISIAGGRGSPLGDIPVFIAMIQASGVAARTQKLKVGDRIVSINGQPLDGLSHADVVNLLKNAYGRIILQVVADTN

Inadl_4, Q8NI35 = target: Inadl_4, Q8NI35
Inadl_4, Q8NI35, sequence (Q8NI35 547-651): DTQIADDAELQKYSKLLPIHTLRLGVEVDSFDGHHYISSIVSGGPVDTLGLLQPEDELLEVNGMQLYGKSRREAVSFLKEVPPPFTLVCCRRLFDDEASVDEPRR

Inadl_8, Q8NI35 = target: Inadl_8, Q8NI35
Inadl_8, Q8NI35, sequence (Q8NI35 1425-1530): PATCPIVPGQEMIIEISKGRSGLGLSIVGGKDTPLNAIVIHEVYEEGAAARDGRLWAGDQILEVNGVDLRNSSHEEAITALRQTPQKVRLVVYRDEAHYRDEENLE

SNTB1, Q13884 = target: T3, SNTB1, Q13884
AHNAK1, Q09666 = target: AHNAK1, Q09666
AHNAK1, Q09666, sequence (Q09666 4-100): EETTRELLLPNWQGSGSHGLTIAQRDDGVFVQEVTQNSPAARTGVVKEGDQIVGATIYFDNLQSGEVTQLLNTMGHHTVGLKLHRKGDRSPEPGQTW

PDZD2_2, O15018 = target: T4, PDZD2_2, O15018
SHANK1, Q9Y566 = target: T5, SHANK1, Q9Y566
DFNB31_2, Q9P202 = target: T6, DFNB31_2, Q9P202
GRIP1_2, Q9Y3R0 = target: T7, GRIP1_2, Q9Y3R0
MAGI3_2, Q5TCQ9 = target: MAGI3_2, Q5TCQ9
MAGI3_2, Q5TCQ9, sequence (Q5TCQ9 398-503): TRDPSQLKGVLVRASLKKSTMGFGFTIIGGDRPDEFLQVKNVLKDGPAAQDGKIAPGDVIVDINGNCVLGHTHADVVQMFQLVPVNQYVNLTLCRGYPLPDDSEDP

GRASP, Q7Z6J2 = target: GRASP, Q7Z6J2
GRASP, Q7Z6J2, sequence (Q7Z6J2 96-193): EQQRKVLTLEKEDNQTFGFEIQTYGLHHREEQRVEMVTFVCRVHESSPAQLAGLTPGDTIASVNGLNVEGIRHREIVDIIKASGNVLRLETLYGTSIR

TX1BP3, O14907 = target: T8, TX1BP3, O14907
LIN7B, Q9HAP6 = target: T9, LIN7B, Q9HAP6
PTPN13_1, Q12923 = target: T10, PTPN13_1, Q12923
HTRA1, Q92743 = target: HTRA1, Q92743
HTRA1, Q92743, sequence (Q92743 360-477): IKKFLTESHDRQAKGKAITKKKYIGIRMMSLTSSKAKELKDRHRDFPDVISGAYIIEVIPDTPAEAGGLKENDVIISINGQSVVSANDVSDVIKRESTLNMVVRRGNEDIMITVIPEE

GRIP2_3, Q9C0E4 = target: GRIP2_3, Q9C0E4
GRIP2_3, Q9C0E4, sequence (Q9C0E4 238-339): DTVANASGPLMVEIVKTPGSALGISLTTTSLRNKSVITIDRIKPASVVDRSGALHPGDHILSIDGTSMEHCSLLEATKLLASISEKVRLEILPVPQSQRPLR

LNX2_3, Q8N448 = target: T11, LNX2_3, Q8N448
TJP2_1, Q9UDY2 = target: TJP2_1, Q9UDY2
TJP2_1, Q9UDY2, sequence (Q9UDY2 24-128): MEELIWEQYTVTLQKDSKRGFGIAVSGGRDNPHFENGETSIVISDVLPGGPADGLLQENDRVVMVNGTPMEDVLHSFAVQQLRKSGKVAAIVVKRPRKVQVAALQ

Inadl_3, Q8NI35 = target: Inadl_3, Q8NI35
Inadl_3, Q8NI35, sequence (Q8NI35 359-469): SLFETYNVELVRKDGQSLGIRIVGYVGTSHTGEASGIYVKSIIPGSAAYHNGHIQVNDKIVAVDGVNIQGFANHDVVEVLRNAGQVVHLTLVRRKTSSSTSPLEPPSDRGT

PICK1, Q9NRD5 = target: PICK1, Q9NRD5
PICK1, Q9NRD5, sequence (Q9NRD5 17-115): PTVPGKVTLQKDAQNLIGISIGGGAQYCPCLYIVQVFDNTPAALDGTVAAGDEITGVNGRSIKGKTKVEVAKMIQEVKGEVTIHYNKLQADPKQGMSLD

SCRIB_2, Q14160 = target: SCRIB_2, Q14160
SCRIB_2, Q14160, sequence (Q14160 857-960): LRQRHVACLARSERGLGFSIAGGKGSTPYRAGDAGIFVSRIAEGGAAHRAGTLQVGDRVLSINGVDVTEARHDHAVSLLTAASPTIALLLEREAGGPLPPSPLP

Inadl_5, Q8NI35 = target: Inadl_5, Q8NI35
Inadl_5, Q8NI35, sequence (Q8NI35 673-780): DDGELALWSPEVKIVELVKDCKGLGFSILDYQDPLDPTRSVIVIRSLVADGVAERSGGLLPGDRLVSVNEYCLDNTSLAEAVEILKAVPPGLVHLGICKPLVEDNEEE

LAP2, Q96RT1 = target: LAP2, Q96RT1
LAP2, Q96RT1, sequence (Q96RT1 other isoform, or with tags, fused parts or gaps): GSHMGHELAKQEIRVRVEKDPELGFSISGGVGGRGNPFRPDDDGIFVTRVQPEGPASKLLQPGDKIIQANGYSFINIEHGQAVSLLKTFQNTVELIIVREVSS

Binder	pKd (PARD3_3, Q8TEW0)	pKd (PDZRN3_1, Q9UPQ7)	pKd (ARHGEF11, O15085)	pKd (Inadl_10, Q8NI35)	pKd (Inadl_4, Q8NI35)	pKd (Inadl_8, Q8NI35)	pKd (SNTB1, Q13884)	pKd (AHNAK1, Q09666)	pKd (PDZD2_2, O15018)	pKd (SHANK1, Q9Y566)	pKd (DFNB31_2, Q9P202)	pKd (GRIP1_2, Q9Y3R0)	pKd (MAGI3_2, Q5TCQ9)	pKd (GRASP, Q7Z6J2)	pKd (TX1BP3, O14907)	pKd (LIN7B, Q9HAP6)	pKd (PTPN13_1, Q12923)	pKd (HTRA1, Q92743)	pKd (GRIP2_3, Q9C0E4)	pKd (LNX2_3, Q8N448)	also measured
NIAESLESLV [PTPRZ1, P23471]	4.18	4.22	3.67	below the threshold	below the threshold	below the threshold	4.68	below the threshold	5.37	below the threshold	below the threshold	below the threshold	4.92	3.74	4.26	below the threshold	below the threshold	4.41	below the threshold	below the threshold	pKd (TJP2_1, Q9UDY2): below the threshold; pKd (Inadl_3, Q8NI35): 4.13; pKd (PICK1, Q9NRD5): below the threshold; pKd (SCRIB_2, Q14160): 3.66; pKd (Inadl_5, Q8NI35): below the threshold; pKd (LAP2, Q96RT1): 4.25
VKRNSKETVV [MARCHF3, Q86UD3]	below the threshold	3.69	4.04	below the threshold	below the threshold	below the threshold	5.19	below the threshold	4.17	below the threshold	below the threshold	below the threshold	5.72	below the threshold	4.16	3.86	3.53	4.35	below the threshold	below the threshold	pKd (TJP2_1, Q9UDY2): 3.8; pKd (Inadl_3, Q8NI35): 3.49; pKd (PICK1, Q9NRD5): below the threshold; pKd (SCRIB_2, Q14160): 3.89; pKd (Inadl_5, Q8NI35): 3.67; pKd (LAP2, Q96RT1): 3.54
ILRKSTTTTV [PRR16, Q569H4]	below the threshold	below the threshold	4.04	below the threshold	below the threshold	3.62	3.85	below the threshold	4.18	below the threshold	below the threshold	below the threshold	5.15	4.41	3.66	below the threshold	below the threshold	4.06	below the threshold	below the threshold	pKd (TJP2_1, Q9UDY2): 3.83; pKd (Inadl_3, Q8NI35): below the threshold; pKd (PICK1, Q9NRD5): 3.95; pKd (SCRIB_2, Q14160): below the threshold; pKd (Inadl_5, Q8NI35): below the threshold; pKd (LAP2, Q96RT1): below the threshold
RQKEVRESKC [SCN8A, Q9UQD0]	below the threshold	4.02	below the threshold	below the threshold	below the threshold	3.95	4.99	below the threshold	3.94	below the threshold	4.37	below the threshold	4.01	below the threshold	3.96	3.78	below the threshold	below the threshold	below the threshold	below the threshold	pKd (TJP2_1, Q9UDY2): below the threshold; pKd (Inadl_3, Q8NI35): below the threshold; pKd (PICK1, Q9NRD5): 4.18; pKd (SCRIB_2, Q14160): 3.82; pKd (Inadl_5, Q8NI35): below the threshold; pKd (LAP2, Q96RT1): below the threshold
EDGESWEYQI [TRPV6, Q9H1D0]	5.35	below the threshold	3.63	below the threshold	below the threshold	below the threshold	below the threshold	below the threshold	4.66	below the threshold	below the threshold	below the threshold	below the threshold	below the threshold	below the threshold	3.59	below the threshold	4.45	below the threshold	below the threshold	pKd (TJP2_1, Q9UDY2): below the threshold; pKd (Inadl_3, Q8NI35): 5.33; pKd (PICK1, Q9NRD5): below the threshold; pKd (SCRIB_2, Q14160): below the threshold; pKd (Inadl_5, Q8NI35): below the threshold; pKd (LAP2, Q96RT1): below the threshold
MQHQRTHTRV [ZSCAN30, Q86W11]	below the threshold	below the threshold	4.3	below the threshold	below the threshold	4.16	4.15	below the threshold	3.95	4.08	below the threshold	below the threshold	5.37	4.34	3.57	below the threshold	below the threshold	3.99	below the threshold	below the threshold	pKd (TJP2_1, Q9UDY2): 4.16; pKd (Inadl_3, Q8NI35): below the threshold; pKd (PICK1, Q9NRD5): below the threshold; pKd (SCRIB_2, Q14160): 3.79; pKd (Inadl_5, Q8NI35): below the threshold; pKd (LAP2, Q96RT1): 3.89
